Results from US20220146515A1 (XIAMEN INNODX BIOTECH, published 2022).

Experiments:
Test in all cases: competition ELISA, antibody preincubated with target, AMH-coated plate
[1] = molecular target: T1, human AMH36-47 short peptide, mutation site 37 (human)
T1 peptide: GAIFREDLDWPP
Description: (§1) 1. AMH antigen was diluted with carbonic acid buffer (20 mmol/L CB, pH 9.6) and then coated on a polyvinyl chloride plate. In the pretreatment, the antibody purified by the protein A column and the synthesized short peptides with different human AMH36-47 amino acid mutations were subjected to proportion incubation (100 ng/ml antibody: 50 ug/ml truncated antigen) for 30 minutes, that were test samples; the control sample was (100 ng/ml antibody: PBS) and incubated for 30 minutes, and then the test samples after incubation and the control sample were added to AMH antigen plate and incubated for 30 minutes, the plate was washed for 5 times, added with GAM-HRP (1/5000 dilution) and incubated for 30 minutes, the plate was washed for 5 times, and the substrate was added and incubated for 15 minutes. The values under wavelength of 450/620 were read by microplate reader, and the detected OD values were finally calculated and analyzed. The calculation formula was: (control sample OD value−test sample OD value)/control sample OD value, and the criterion for determination was as follows: a value lower than 90% indicated the corresponding amino acid was a key amino acid, and the mutation has a great impact on the reaction of antibody.

[2] = molecular target: T2, human AMH36-47 short peptide, mutation site 40 (human)
T2 peptide: GLIFAEDLDWPP
Description: as §1

[3] = molecular target: T3, human AMH36-47 short peptide, mutation site 38 (human)
T3 peptide: GLAFREDLDWPP
Description: as §1

[4] = molecular target: T4, human AMH36-47 short peptide, mutation site 41 (human)
T4 peptide: GLIFRADLDWPP
Description: as §1

[5] = molecular target: T5, human AMH36-47 short peptide, mutation site 45 (human)
T5 peptide: GLIFREDLDAPP
Description: as §1

[6] = molecular target: T6, human AMH36-47 short peptide, mutation site 43 (human)
T6 peptide: GLIFREDADWPP
Description: as §1

[7] = molecular target: T7, human AMH36-47 short peptide, mutation site 47 (human)
T7 peptide: GLIFREDLDWPA
Description: as §1

[8] = molecular target: T8, human AMH36-47 short peptide, mutation site 39 (human)
T8 peptide: GLIAREDLDWPP
Description: as §1

[9] = molecular target: T9, human AMH36-47 short peptide, mutation site 44 (human)
T9 peptide: GLIFREDLAWPP
Description: as §1

[10] = molecular target: T10, human AMH36-47 short peptide, mutation site 36 (human)
T10 peptide: ALIFREDLDWPP
Description: as §1

[11] = molecular target: T11, human AMH36-47 short peptide, mutation site 46 (human)
T11 peptide: GLIFREDLDWAP
Description: as §1

[12] = molecular target: T12, human AMH36-47 short peptide, mutation site 42 (human)
T12 peptide: GLIFREALDWPP
Description: as §1

[13] = molecular target: T13, AMH3647-13 (Rat sequence) (Rat)
T13 peptide: GLIFLEDGVWPP

[14] = molecular target: T14, AMH3647-23 (Cattle sequence) (Cattle)
T14 peptide: ALIFQQAWDWPL

[15] = molecular target: T15, AMH3647-8 (Myotis sequence) (Myotis)
T15 peptide: GLIFHQDWDWPA

[16] = molecular target: T16, AMH3647-12 (Gerbil sequence) (Gerbil)
T16 peptide: GLIFLEDGLWPP

[17] = molecular target: T17, AMH3647-9 (Horseshoe bat sequence) (Horseshoe bat)
T17 peptide: GLIFHQDWDWSP

[18] = molecular target: T18, AMH3647-15 (Guinea pig sequence) (Guinea pig)
T18 peptide: GLIFPEDQVWPP

[19] = molecular target: T19, AMH3647-17 (Chimpanzee sequence) (Chimpanzee)
T19 peptide: GLIFPEDLDWPP

[20] = molecular target: T20, AMH3647-16 (Degu sequence) (Degu)
T20 peptide: GLIFPEDWVWPP

[21] = molecular target: T21, AMH3647-22 (Mouse sequence) (Mouse)
T21 peptide: GLIFLEDELWPP

[22] = molecular target: T22, AMH truncated antigen 36-47 (human)
T22 construct: also called human AMH36-47; AMH3647-27 (Human)
T22 peptide: GLIFREDLDWPP

[23] = molecular target: T23, AMH3647-20 (Goat sequence) (Goat)
T23 peptide: TLIFQQDWDWPL

[24] = molecular target: T24, AMH3647-2 (Beaver sequence) (Beaver)
T24 peptide: DLIFHEDWAWPP

[25] = molecular target: T25, AMH3647-10 (Pig sequence) (Pig)
T25 peptide: GLIFHWDWNWPP

[26] = molecular target: T26, AMH3647-25 (Horse sequence) (Horse)
T26 peptide: GLIFHQDWDWPP

[27] = molecular target: T27, AMH3647-19 (Dog sequence) (Dog)
T27 peptide: GLLFQPDWDWPP

[28] = molecular target: T28, AMH3647-7 (Cat sequence) (Cat)
T28 peptide: GLIFHPDWDWQP

percent inhibition [1]: 97% | percent inhibition [2]: 88% | percent inhibition [3]: 96% | percent inhibition [4]: 7% | percent inhibition [5]: 100% | percent inhibition [6]: 94% | percent inhibition [7]: 99% | percent inhibition [8]: 9% | percent inhibition [9]: 64% | percent inhibition [10]: 100% | percent inhibition [11]: 99% | percent inhibition [12]: 98% | percent inhibition [13]: 11% | percent inhibition [14]: -8% | percent inhibition [15]: 8% | percent inhibition [16]: 5% | percent inhibition [17]: -3% | percent inhibition [18]: 2% | percent inhibition [19]: 9% | percent inhibition [20]: -2% | percent inhibition [21]: -9% | percent inhibition [22]: 100% | percent inhibition [23]: 3% | percent inhibition [24]: 11% | percent inhibition [25]: 8% | percent inhibition [26]: -2% | percent inhibition [27]: -1% | percent inhibition [28]: 6%
B1: monoclonal antibody C9F2-2 (antibody, V domains shown)
VH: EVQLVESGGGLVKPGGSLKLSCAASGFAFSTYDMSWVRQTPEKRLEWVAYISPGGGATYYPDTVKGRFTISRDNAKNTLYLQMTSLKSEDTAMYYCAGRRDYYGMDYWGQGTSVTVSS
VL: DVVMTQTPLSLPVSLGDQASISCRSSQSLVHSNGNTYLHWYLQKPGQSPKLLIYKVSNRFSGVPDRFSGSGSGTDFTLKISRVEAEDLGVYFCSQSTHVPWTFGGGTKLEIK
notes: Mouse hybridoma antibody purified from ascites; the tie is indirect; also called hybridoma CCTCC NO: C2018183
